Source: US5486595A, “Tumor necrosis factor inhibitors” (Centecor, Inc., priority 1994, dated 1996)
Where a SMILES comes first, the peptide text is derived from it. Where no end group is shown, it is not given here.

The compounds below were run against T1, human TNFα (Homo sapiens, UniProt P01375) (assay: p55 Receptor/IgG Fusion Protein Binding Assay (inhibition of TNFα capture by p55-Ig coated plate)). Conditions: peptide 1 mM; TNFα 25 ng/ml.
T1 construct: purchased Biosource, Camarillo, Calif
T1 sequence (P01375 77-233 limits assumed): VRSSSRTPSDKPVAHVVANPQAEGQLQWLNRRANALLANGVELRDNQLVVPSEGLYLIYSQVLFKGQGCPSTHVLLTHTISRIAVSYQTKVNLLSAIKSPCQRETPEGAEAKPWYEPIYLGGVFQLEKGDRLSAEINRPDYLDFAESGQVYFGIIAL

| inhibition of binding of TNFα to p55TNFr-IgG chimeric construct [%] | Compound |
| --- | --- |
| 65 | SEQ ID NO:34: peptide of the invention that inhibits TNFα; sequence not printed (SDTVADSAEDSTYTQ) |
| 72 | SEQ ID NO:35: peptide of the invention that inhibits TNFα; sequence not printed (VADSAEDSTYTQLWN) |
| 77 | SEQ ID NO:36: peptide of the invention that inhibits TNFα; sequence not printed (SAEDSTYTQLWNWVP) |
| 77 | SEQ ID NO:37: peptide of the invention that inhibits TNFα; sequence not printed (DSTYTQLWNWVPEAL) |
| 64 | SEQ ID NO:38: peptide of the invention that inhibits TNFα; sequence not printed (YTQLWNWVPEALSAG) |
| 42 | SEQ ID NO:39: peptide of the invention that inhibits TNFα; sequence not printed (LWNWVPEALSAGSRA) |
| 72 | SEQ ID NO:40: peptide of the invention that inhibits TNFα; sequence not printed (WVPEALSAGSRASSD) |
| 68 | SEQ ID NO:41: peptide of the invention that inhibits TNFα; sequence not printed (EALSAGSRASSDQVE) |
| 40 | SEQ ID NO:42: peptide of the invention that inhibits TNFα; sequence not printed (SSDQVETQAATREQN) |
| 37 | SEQ ID NO:43: peptide of the invention that inhibits TNFα; sequence not printed (PGWYAALSKQEGARL) |
| 28 | SEQ ID NO:44: peptide of the invention that inhibits TNFα; sequence not printed (AAPGTFSNTTSSTDI) |
| 73 | SEQ ID NO:45: peptide of the invention that inhibits TNFα; sequence not printed (GTFSNTTSSTDIARP; also: C-terminal blocking group) |
| 66 | SEQ ID NO:46: peptide of the invention that inhibits TNFα; sequence not printed (SNTTSSTDIARPHQI) |
| 29 | SEQ ID NO:47: peptide of the invention that inhibits TNFα; sequence not printed (TSSTDIARPHQIANV) |
| 27 | SEQ ID NO:48: peptide of the invention that inhibits TNFα; sequence not printed (TDIARPHQIANVVAI) |
| 26 | SEQ ID NO:49: peptide of the invention that inhibits TNFα; sequence not printed (ARPHQIANVVAIPGN) |
| 29 | SEQ ID NO:50: peptide of the invention that inhibits TNFα; sequence not printed (VAIPGNASRDAVATS) |
| 68 | SEQ ID NO:51: peptide of the invention that inhibits TNFα; sequence not printed (PGNASRDAVATSTSP) |
| 63 | SEQ ID NO:52: peptide of the invention that inhibits TNFα; sequence not printed (ASRDAVATSTSPTRS) |
| 63 | SEQ ID NO:53: peptide of the invention that inhibits TNFα; sequence not printed (DAVATSTSPTRSMAP) |

Same assay, conditions: peptide 1 mM; TNFα 25 ng/ml; read-out: inhibition of binding of TNFα to p55TNFr-IgG chimeric construct

| inhibition at 1000 µM [%] | Compound |
| --- | --- |
| 72 | C[C@@H](O)[C@H](NC(=O)[C@H](CO)NC(=O)[C@@H]1CCCN1C(=O)[C@H](CCC(=O)O)NC(=O)[C@@H]1CCCN1C(=O)[C@@H](NC(=O)[C@@H]1CCCN1C(=O)[C@H](CCC(N)=O)NC(=O)[C@@H](NC(=O)[C@H](Cc1c[nH]cn1)NC(=O)[C@H](CCC(N)=O)NC(=O)[C@H](CO)NC(=O)[C@H](CCCNC(=N)N)NC(=O)[C@@H](NC(=O)[C@@H](N)CO)[C@@H](C)O)[C@@H](C)O)[C@@H](C)O)C(N)=O [SEQ ID NO:57] (H-STRSQHTQPTPEPST-NH2) |
| 72 | C[C@H](NC(=O)[C@@H](NC(=O)[C@H](CO)NC(=O)[C@@H]1CCCN1C(=O)[C@H](CCC(=O)O)NC(=O)[C@@H]1CCCN1C(=O)[C@@H](NC(=O)[C@@H]1CCCN1C(=O)[C@H](CCC(N)=O)NC(=O)[C@@H](NC(=O)[C@H](Cc1c[nH]cn1)NC(=O)[C@H](CCC(N)=O)NC(=O)[C@@H](N)CO)[C@@H](C)O)[C@@H](C)O)[C@@H](C)O)C(=O)N1CCC[C@H]1C(=O)N[C@@H](CO)C(N)=O [SEQ ID NO:58] (H-SQHTQPTPEPSTAPS-NH2) |
| 73 | C[C@H](NC(=O)[C@@H](NC(=O)[C@H](CO)NC(=O)[C@@H]1CCCN1C(=O)[C@H](CCC(=O)O)NC(=O)[C@@H]1CCCN1C(=O)[C@@H](NC(=O)[C@@H]1CCCN1C(=O)[C@H](CCC(N)=O)NC(=O)[C@@H](N)[C@@H](C)O)[C@@H](C)O)[C@@H](C)O)C(=O)N1CCC[C@H]1C(=O)N[C@@H](CO)C(=O)N[C@H](C(=O)N[C@@H](CO)C(=O)N[C@@H](Cc1ccccc1)C(N)=O)[C@@H](C)O [SEQ ID NO:59] (H-TQPTPEPSTAPSTSF-NH2) |
| 73 | CC(C)C[C@H](NC(=O)[C@H](Cc1ccccc1)NC(=O)[C@H](CO)NC(=O)[C@@H](NC(=O)[C@H](CO)NC(=O)[C@@H]1CCCN1C(=O)[C@H](C)NC(=O)[C@@H](NC(=O)[C@H](CO)NC(=O)[C@@H]1CCCN1C(=O)[C@H](CCC(=O)O)NC(=O)[C@@H]1CCCN1C(=O)[C@@H](N)[C@@H](C)O)[C@@H](C)O)[C@@H](C)O)C(=O)N[C@@H](CC(C)C)C(=O)N1CCC[C@H]1C(N)=O [SEQ ID NO:60] (H-TPEPSTAPSTSFLLP-NH2) |
| 72 | CSCC[C@H](NC(=O)[C@@H]1CCCN1C(=O)[C@H](CC(C)C)NC(=O)[C@H](CC(C)C)NC(=O)[C@H](Cc1ccccc1)NC(=O)[C@H](CO)NC(=O)[C@@H](NC(=O)[C@H](CO)NC(=O)[C@@H]1CCCN1C(=O)[C@H](C)NC(=O)[C@@H](NC(=O)[C@H](CO)NC(=O)[C@@H]1CCCN1)[C@@H](C)O)[C@@H](C)O)C(=O)NCC(=O)N1CCC[C@H]1C(N)=O [SEQ ID NO:61] (H-PSTAPSTSFLLPMGP-NH2) |
| 62 | CSCC[C@H](NC(=O)[C@@H]1CCCN1C(=O)[C@H](CC(C)C)NC(=O)[C@H](CC(C)C)NC(=O)[C@H](Cc1ccccc1)NC(=O)[C@H](CO)NC(=O)[C@@H](NC(=O)[C@H](CO)NC(=O)[C@@H]1CCCN1C(=O)[C@H](C)N)[C@@H](C)O)C(=O)NCC(=O)N1CCC[C@H]1C(=O)N[C@@H](CO)C(=O)N1CCC[C@H]1C(=O)N1CCC[C@H]1C(N)=O [SEQ ID NO:62] (H-APSTSFLLPMGPSPP-NH2) |

Same assay, conditions: various concentrations of peptide

| dose dependent inhibition of TNFα (FIG. 1) | Compound |
| --- | --- |
| dose dependent inhibition | SEQ ID NO:45: peptide of the invention that inhibits TNFα; sequence not printed (GTFSNTTSSTDIARP; also: C-terminal blocking group) |
